Assay: yeast display, Sf9 membrane polyspecificity reagent, FACS + sequencing; frameworks hold sequencing errors
Summary of the method: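 Sorting gates, low and high (top ~1%), were placed on anti-HA fluorescence to track expression and on streptavidin fluorescence to track reagent binding. A clone's polyreactivity label is taken from the gate it came out of. The reagent was 10% biotinylated, detergent-solubilized Sf9 membrane, applied for 1 hour at 4 °C to galactose-induced yeast display cells.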

Sequence	polyreactivity (PSR sort gate)
QVQLVESGVGLVQAGGSLRLSCAASGSIFGVNMGWYRQAPGKERELVASITSGGSTNYADSVKGRFTISRDNAKNTVYLQMNSLKPEDTAVYYCATDRYVWGQGTQVTVSS	low polyreactivity
QVQLVESGVGLVQAGGSLRLSCAASGSIFKYYAMGWYRQAPGKERELVAAISSNGGRTYYADSVKGRFTISRDNAKNTDYLQMNSLKPEDTAVYYCARRYRRTGESEYDYWGQGTQVTVSS	high polyreactivity
QVQLVESGVGLVQAGGSLRLSCAASGSIFQYNAMGWYRQAPGKERELVAAITSTGDTNYADSVKGRFTISRDNAKNTVYLQMNSLKAEDTAVYFCAADVYGTVRRVGWYYVGEGYDYWGQGTQVTVSS	low polyreactivity
QVQLVESGVGLVQAGGSLRLSCAASGSIFWQNTMGGYRPAPGKERELVATITSAGSTYYADSVKGRFTISRDNAKNTVSLQMNSLKPEDTAVYYGAKGHHPGHVFHPDYGYDYWGQGTQVTVSS	low polyreactivity
QVQLVESGVGLVQAGGSLRLSCAASGSIFYNYAMGWYRQAPGKEREFVAAISWSGDTTYYADSVKGRFTISRDNAKNTVYLQMNSLKPEDTAVYYCAAESYIWFWRPYYYWGQGTQVTLSS	low polyreactivity
QVQLVESGVGLVQAGGSLRLSCAASGSILDYYVMGWYRQAPGKDRELVAAIRGGGSTYYADSVKGRFTFSRDNEKNTVYLQMNSLKPEDTAVYYCAKDSQTARDFDYSGQGTQVTVSS	low polyreactivity
QVQLVESGVGLVQAGGSLRLSCAASGSILSKNAMAWYREAPGNERELVAAITWSGGSTYYADSVKGRFTISRDNEKNTVYLQMNSLKPEDTAVSYCAADLDWSPHFGLPYDYWGQGTQVTVSS	low polyreactivity
QVQLVESGVGLVQAGGSLRLSCAASGSTFDVYDMGWYRQAPGKERELVASISWDGDRTYYADSVKGRFTISRDNAKNTVYLQMKSLKPEDTAVYYCAATLRPYSSFPNRYGYWGQGTQVSVSS	low polyreactivity
QVQLVESGVGLVQAGGSLRLSCAASGSTFGGNAMGWYRQAPWKERELVADITFSGGSTSYAHSVKGSFTISRDNAKNTVYLLMNRLKPEDTAVYYCNRDYPEIIVAGLDFWGQGTQLTVSS	low polyreactivity
QVQLVESGVGLVQAGGSLRLSCAASGSTFITYAMGWYRQAPGKERELVAAISTGGSTYYADSVKGRFTISRDNAKNTVYLQMNSLKPEDTAVYYCNAYSSSRGSTLQYSLQYDYWGQGTQVTVSS	low polyreactivity
QVQLVESGVGLVQAGGSLRLSCAASGSTFLTNAMGWNRQAPGKERELVAAINWRGDSTYYADSVKGRFTISRDNAKNTVYLQMNSLKPEDTAVYYCAAKYNHVTDEYDYWGQGTQVTVSS	high polyreactivity
QVQLVESGVGLVQAGGSLRLSCAASGSTFQWYAMGWYIQAPGKERELVAAINKSGGTTYYADSVKGRFTISRDNAKNTVYLLMNSLKPEDTAVYYCATDTPVVYQPGNMDYWGQGTQVTVSS	low polyreactivity
QVQLVESGVGLVQAGGSLRLSCAASGSTFRGYAMGWYRQAPGKERELVAAISSSGGRTYYAYSVKGRFTISRDNAKNTVYLQMNSLKPEDTAVYYCNAASKNSVRYAYQNYDYWGQGTQVTVSS	high polyreactivity
QVQLVESGVGLVQAGGSLRLSCAASGYTFRTNVMGWYRQAPGKERELVATINWRGGSTYYADSVKGRFTISRDNAKNTVYLQMNSLKPEDTAVYYCAADPGPYYDWGYDYWGQGTQVTVSS	low polyreactivity
QVQLVESGVGLVQAGGSLRLSCADSGSNFRYTMGCYRQAPWKERELVAAINRGASTYYADSVKGRFTISRDNAKKTVYLQMNSLKPVDNAVYYCAASVGTQGYHGDYWGQGTQVTVSS	high polyreactivity
QVQLVESGVGLVQAGGSLRLSCAGSGFNFIANAMGWYRQAPGKERELVAAISDGGSTYYADSVKGRFTISRDNAKNTVYLQMNSLKPEDTAVYYCAKDVTWAGHYDYWGQGTQVTVSS	low polyreactivity
QVQLVESGVGLVQAGGSLRLSCAPSGFTFGRYAMGWYRQAPGKEREFVASISRSGGSTNYADSVKGRFTISRDNAKNTVYLQMNSLKPEDTAVYYCARDSWLHYRWGYDYWGQGTQVTVSS	high polyreactivity
QVQLVESGVGLVQAGGSLRLSSAASGFTFVSNDMGWYRQAPGKERELVAAIRYRGGDTYYADSVKGRFTISRDNAKNTVYLQMNSMKPEDTAVYYCAVDVATYTAGWYYHGYDYWGQGTQVTVSS	low polyreactivity
QVQLVESGVGLVQAGGSLRLSSADSGRTSPGNAMGWYRQAPGKETELVAAINVSGGSTYYADSVKGRFTISRDNAKNTVYLQMNSLKPEDTAVYDCATDTGYPYSYDLYDSYYWGQGTQVTVSS	low polyreactivity
QVQLVESGVGLVQAGGSLRVSCAASGSICNYYAMVWYRQAPGKERELVATISSGGNTKYADSVKRRFTISRDNAKNTVSLQMNSQKPEDTAVYYCAARWQHSGYRDRYWYDYWGQGTQVTVSS	low polyreactivity
QVQLVESGVGLVQAGGSLSLSCAASGRTFAYNAMGWYRQAAGKERELVAAINGDGGSTYYADSVKGRFTISRDNAMNTDYLQMISLKPEDTAVYYCAADLKYDGAYDYWGQGTQVTVSS	high polyreactivity

Sequence	polyreactivity (PSR sort gate)
QVQLVESGVGLVQSGGSLRLRCAASGFTFVSYALGWYRQAPGKERELVASISKRGGTTYYADSVKGRFTISRENAKNTVYLQMNSLKPEDTAVYYCNARDTRRYVTYDSGYDYWGQGTQVTVSS	high polyreactivity
QVQLVESLVGLVQAVGSLRLSCAAYGFIFAFDSMGCYRHAPRKERELVAAIRTGGSKNYADSVKGRFTISRDNAKTTVYLQMNSLKPEDTAVYNCAANGRVGFWRWERDYWGQGTQVTVSS	high polyreactivity
QVQLVESRGGIVQAGGSLRLSCAASGFTFYFYAKGWYRQAPGKERELVAGISRGSRTNYADSVKGRFTISRDNAKNTVYLQMNSLKPEDTAVYYCAAEVSYWGLGTQVTVSS	low polyreactivity
QVQLVESRGGKVQAVGSLRLSCAASGLTFYTYAMGWYRQEPGKDRELVAAIRYRGGRSNYADSVKGRFTISRDNANNTVYLQMNSLKPEDTAVYYCAARSILVTQAYGYWGQGTQVNVSS	high polyreactivity
QVQLVESRGGLVQAEGSLRLSCAASGYTFTSNDMGWYRQAPGKERELVAAITWSGGTTYYADSVKGRFTISRDNAKNTVYLQMNSLKPEDTSVYYFAADVSLVYPYSYRYYYWGQGTQVTVSS	low polyreactivity
QVQLVESRGGLVQAGGRLRLSCAASGSIFDWYAMGWYRQAPGKERELVADITWSGDSTYYADSVKGRFTISRDNAKNTVYLQMNSLKPEDTAVYYCAADIWFNTYYEYDYWGQGTQVTVSS	high polyreactivity
QVQLVESRGGLVQAGGSHRLSCAASGITILQYAMGWYRQAPRKERELVAAISRRGGNTYYADSVKGRFTISRDNAKNTVYLQMNSLKPEDTAVYYCAALSSFQSEYDYWGQGTQLTVSS	high polyreactivity
QVQLVESRGGLVQAGGSIRLSCAASGITFGSYAMGWYRQAPGKERELVAAIDTSGDDTYYADSVKGRFTISRDNAKNTVYLQMNSLNPEDTAVYYCNAVSTASDEYDYWGQGTQVTVSS	low polyreactivity
QVQLVESRGGLVQAGGSLGLSCAASGRIFSGYAMGWYRKAPGKERELVAAISGSGGTTYYADSVKGRFTISRDNAKNTVYLQINSLKPEDTAVYYCAVVIGVGYGYYYWGQGTQVTVSS	low polyreactivity
QVQLVESRGGLVQAGGSLRISCAASGNIFLDYVMGWSRQAPGKERELVAAINSGGSTYYADSVKGRFTISSDNAKNTVYLQMNSLKPEDTAVYYCAADDYYKFDYWGQGTQVTVSS	low polyreactivity
QVQLVESRGGLVQAGGSLRLSCAASGFIFNYYVMGRYRQAPGKERELVAGITKRGDRTYYADSVKGRFTISRDNAKNTVYLQMNSLKPEDTAVYYCAALARSFANSYGYWGQGTQVTVSS	high polyreactivity
QVQLVESRGGLVQAGGSLRLSCAASGFIFSYYAMGWYRQAPGKERELVAAISGLGGSTYYADSVKGRFTISRDNAKNTVYLQMNSLKPEDTAVYYCAATTLRYYRHGDYWGQGTQVTVSS	low polyreactivity
QVQLVESRGGLVQAGGSLRLSCAASGFIFVSYTMGWYRQAPGKERDLVATITLSDGSTYYADSVQGRFTISRDNAKNTVYLQMNSLKPEDTAVYSGNKDKVVVRYDYWGQGTQVTVSS	low polyreactivity
QVQLVESRGGLVQAGGSLRLSCAASGFIITQYAMGWYRQAPGKERELVAAISGRGGSTYYADSVKGRFTISRDNAKNTVYLQMNSLIPEDTAVYYCNTVRIGPPQDYDYWGQGTQVTVSS	high polyreactivity
QVQLVESRGGLVQAGGSLRLSCAASGFTFDIYAMGWYRQAPGKERELVAAINYSGARTYYADSVKGRFTISRDNAKNTVYLQMNSLNPEDTAVYYCNRAARIKYDYWGQGTQVTVSS	high polyreactivity
QVQLVESRGGLVQAGGSLRLSCAASGFTFIGYAMGWYRPEPGKERELVAPITQSGGSTFYADSVKGRFTISRENAKNTVYLQMNSLKPEDTAVDDCNAYRKFRYCGQGTQVTVSS	low polyreactivity
QVQLVESRGGLVQAGGSLRLSCAASGFTFSWYAMGWYRQAPGKERELVAAITRSGGSTNYADSVKGRFTMSRDNAKNTVYLQMNSLKPEDTAVYYCAARYSPGFGYWGKGTQVTVSS	high polyreactivity
QVQLVESRGGLVQAGGSLRLSCAASGITSRFYVMGWYRKAPGKERELVAAISTRGTSTYYADSVKGRFTLSRDNAKNTVYLQMNSLKPEDTAVYYCAAVGGYPYQYPYGSWGQGTQVTVSS	high polyreactivity
QVQLVESRGGLVQAGGSLRLSCAASGPTFLINAMGCYRQAPGKETELVAEITGRGSSTYYADSVKGRFTISRDNAINTVYLQMNSLKAEDTAVYYCNAVLRKMTYDYWGQGTQVTVSS	high polyreactivity
QVQLVESRGGLVQAGGSLRLSCAASGRIFVVYTMGWYRQAPGKERELVAAISWRGGTTYYADSVKRRFTISRDNAKTTVYLQMTSLIPEDTAVSYCATREWSPRGSYDYSGQGTQVTVSS	high polyreactivity
